The assay has as its target SHP2^WT-TurboID (UniProt Q06124).

From publication doi:10.1101/2025.02.26.640373 come the findings set out here.

In turn, PD-1 pY248 phosphopeptide came in with an in vitro phosphatase activity (initial velocity, RFU/s, DiFMUP substrate): +PD-1 pY248 over basal activity of 10 fold.
